Results on three molecules are retold here after patent publication US20230042913A1 (COUNCIL OF THE QUEENSLAND INSTITUTE OF MEDICAL RESEARCH, published 2023).

A word on the IC50: it is the concentration at which inhibition is half-maximal. A lower IC50 goes with inhibition by little substance.

Assay [1] has as its target T1, mouse RANKL transiently expressed by HEK-293 cells (mouse, UniProt O35235 1-316).
T1 construct: whole, on cells; also called muRANKL
T1 sequence (looked up): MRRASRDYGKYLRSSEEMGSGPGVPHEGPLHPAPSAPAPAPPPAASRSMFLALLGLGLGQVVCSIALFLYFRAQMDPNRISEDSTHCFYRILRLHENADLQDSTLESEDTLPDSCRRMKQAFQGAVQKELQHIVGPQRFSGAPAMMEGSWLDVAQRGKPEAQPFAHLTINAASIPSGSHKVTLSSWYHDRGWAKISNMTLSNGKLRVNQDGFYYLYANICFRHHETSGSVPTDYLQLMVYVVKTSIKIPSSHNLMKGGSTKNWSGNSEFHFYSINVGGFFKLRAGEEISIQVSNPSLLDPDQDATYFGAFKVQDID
Briefly: flow cytometry competition: blocking of biotinylated RANK-Fc binding to muRANKL on transfected HEK-293 cells. As to the method:
FIG. 29 is a graphical representation showing antibody competition of RANKL-RANK binding. HEK-293 cells transiently transfected with mouse RANKL were incubated with various concentrations of either anti-RANKL/PD-1 bispecific, anti-RANKL mAb IK22-5, rat IgG2a isotype control or human IgG1 isotype control for 30 minutes on ice. Secondly, cells were incubated with 2.5 μg of biotinylated recombinant murine RANK-Fc for an additional 30 minutes on ice. After two washes with FACS buffer (PBS+10% FCS), a final incubation with Streptavidin-APC for extra 30 minutes on ice. Samples and data were analyzed on a Fortessa 4 (BD Biosciences) flow cytometer and analyzed with FlowJo v10 software (Tree Star, Inc.). Representative FACS plots and summary data of inhibition of RANK-Fc binding of two independent experiments are shown.
A general note: In flow cytometry, cells or beads pass a laser one at a time.

Assay [2] concerns the target T2, mouse PD-1 transiently expressed by HEK-293 cells (mouse, UniProt Q02242 25-288).
T2 construct: whole, on cells; also called muPD-1
T2 sequence (looked up): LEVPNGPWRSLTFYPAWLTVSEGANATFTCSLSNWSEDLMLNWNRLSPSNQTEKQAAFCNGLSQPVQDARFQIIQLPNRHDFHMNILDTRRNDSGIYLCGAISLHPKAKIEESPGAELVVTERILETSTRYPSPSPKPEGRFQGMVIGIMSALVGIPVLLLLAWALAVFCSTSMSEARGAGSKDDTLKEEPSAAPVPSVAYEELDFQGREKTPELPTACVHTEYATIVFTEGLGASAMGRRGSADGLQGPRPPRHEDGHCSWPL
Briefly: flow cytometry competition: blocking of biotinylated PD-L1-Fc binding to muPD-1 on transfected HEK-293 cells. As to the method: FIG. 31 is a graphical representation showing antibody competition of PD-1/PD-L1 binding. HEK-293 cells transiently transfected with mouse PD-1 were incubated with various concentrations of either anti-RANKL/PD-1 bispecific, anti-PD-1 mAb RMP1-14, rat IgG2a isotype control or human IgG1 isotype control for 30 minutes on ice. Secondly, cells were incubated with 2.5 μg of biotinylated recombinant murine PD-L1-Fc for an additional 30 minutes on ice. After two washes with FACS buffer (PBS+10% FCS), a final incubation with Streptavidin-APC for extra 30 minutes on ice. Samples and data were analyzed on a Fortessa 4 (BD Biosciences) flow cytometer and analyzed with FlowJo v10 software (Tree Star, Inc.). Representative FACS plots and summary data of inhibition of PD-L1-Fc binding of two independent experiments are shown.

Assay [3] deals with T2, mouse PD-1 transiently expressed by …. Put plainly: summary sentence of Example 25.

B1: anti-RANKL mAb IK22-5 (rat IgG2a) (antibody, V domains shown)
VH: QVQLKESGPGLVLSSATLSLTCTVSGFSLTNYDVSWIRHLPGKGLEWMGGVWLSGNTEYNSDFKSRLSISRDISKSQVFLKMSNLKIEDTGTYYCARDIGTTSDYWGQGVTVTVSS
VL: DIQVTQSPSFLSASVGDRVTFNCKTSQNINKYLAWYQAKFGEGPKLLIFNADSLQSGIPPRFSGSGSGTDFTLTISGLQPEDFATYFCLQYNSWPTFGSGTKLEIK
notes: Rat IgG2a monoclonal antibody; also called anti-muRANKL antibody (IK22-5 rat IgG2a)
Turning to B1, the IC50 in assay [1] worked out at 1.1 µg/mL.

B2: anti-PD-1 mAb RMP1-14 (rat IgG2a) (antibody, V domains shown)
VH: EVQLQESGPGLVKPSQSLSLTCSVTGYSITSSYRWNWIRKFPGNRLEWMGYINSAGISNYNPSLKRRISITRDTSKNQFFLQVNSVTTEDAATYYCARSDNMGTTPFTYWGQGTLVTVSS
VL: DIVMTQGTLPNPVPSGESVSITCRSSKSLLYSDGKTYLNWYLQRPGQSPQLLIYWMSTRASGVSDRFSGSGSGTDFTLKISGVEAEDVGIYYCQQGLEFPTFGGGTKLELK
notes: Rat IgG2a monoclonal antibody; also called anti-muPD-1 antibody (RMP1-14 rat IgG2a)
With B2, the binding result in assay [2] was “binds”.

B3: bispecific anti-RANKL/PD-1 antibody (IK22-5/RMP1-14) (bispecific antibody)
heavy 1: QVQLKESGPGLVLSSATLSLTCTVSGFSLTNYDVSWIRHLPGKGLEWMGGVWLSGNTEYNSDFKSRLSISRDISKSQVFLKMSNLKIEDTGTYYCARDIGTTSDYWGQGVTVTVSSASTKGPSVFPLAPSSKSTSGGTAALGCLVKDYFPEPVTVSWNSGALTSGVHTFPAVLQSSGLYSLSSVVTVPSSSLGTQTYICNVNHKPSNTKVDKKVEPKSCDKTHTCPPCPAPELLGGPSVFLFPPKPKDTLMISRTPEVTCVVVAVSHEDPEVKFNWYVDGVEVHNAKTKPREEQYNSTYRVVSVLTVLHQDWLNGKEYKCKVSNKALPAPIEKTISKAKGQPREPQVYTLPPCRDELTKNQVSLWCLVKGFYPSDIAVEWESNGQPENNYKTTPPVLDSDGSFFLYSKLTVDKSRWQQGNVFSCSVLHEALHNHYTQKSLSLSPGK
light 1: DIQVTQSPSFLSASVGDRVTFNCKTSQNINKYLAWYQAKFGEGPKLLIFNADSLQSGIPPRFSGSGSGTDFTLTISGLQPEDFATYFCLQYNSWPTFGSGTKLEIKRTVAAPSVFIFPPSDEQLKSGTASVVCLLNNFYPREAKVQWKVDNALQSGNSQESVTEQDSKDSTYSLSSTLTLSKADYEKHKVYACEVTHQGLSSPVTKSFNRGEC
heavy 2: EVQLQESGPGLVKPSQSLSLTCSVTGYSITSSYRWNWIRKFPGNRLEWMGYINSAGISNYNPSLKRRISITRDTSKNQFFLQVNSVTTEDAATYYCARSDNMGTTPFTYWGQGTLVTVSSRTVAAPSVFIFPPSDEQLKSGTASVVCLLNNFYPREAKVQWKVDNALQSGNSQESVTEQDSKDSTYSLSSTLTLSKADYEKHKVYACEVTHQGLSSPVTKSFNRGECDKTHTCPPCPAPELLGGPSVFLFPPKPKDTLMISRTPEVTCVVVAVSHEDPEVKFNWYVDGVEVHNAKTKPREEQYNSTYRVVSVLTVLHQDWLNGKEYKCKVSNKALPAPIEKTISKAKGQPREPQVCTLPPSRDELTKNQVSLSCAVKGFYPSDIAVEWESNGQPENNYKTTPPVLDSDGSFFLVSKLTVDKSRWQQGNVFSCSVLHEALHNHYTQKSLSLSPGK
light 2: DIVMTQGTLPNPVPSGESVSITCRSSKSLLYSDGKTYLNWYLQRPGQSPQLLIYWMSTRASGVSDRFSGSGSGTDFTLKISGVEAEDVGIYYCQQGLEFPTFGGGTKLELKASTKGPSVFPLAPSSKSTSGGTAALGCLVKDYFPEPVTVSWNSGALTSGVHTFPAVLQSSGLYSLSSVVTVPSSSLGTQTYICNVNHKPSNTKVDKKVEPKSC
notes: also called RMP1-14 CH-CL X IK22/5 WT bispecific; anti-RANKL/PD-1 bispecific
As for B3, the binding result in assay [3] is recorded as “binds”. In assay [1], this molecule showed an IC50 of 2.6 µg/mL.
